Test results taken from a protein production outcome set (Wang et al. 2014).

test: label from the status in PepcDB records
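Further: failed if final PepcDB status was selected cloned or expressed and not failed if soluble or beyond.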

Protein production, failed:
MMAVESSKRLASETPVSLFIPYSHHITDTIISTKNAEYLSIWKIDGRSHQSASEEDIFQWARELNNTLRGIASANLSLWTHIVRRRVYEYPDSTFDKMFCYQLDEKYRQSFTGYNLMVNDLYLTVVFQPIADKVMSFFSQHERETLDQKKMRQESCIKALNDINRTLGQSFKRYGGELLGTYEKNGHAYSSALEFLAMLVNGEYSPMPICRDRFADYMSINRPFFSKWGALGELRTTSGIRRFGMMEIKEYDTTTKPGQFNVLLESDFEFVLTQSFSVLSRHAAKDYLQRHQRNLIDARDVATSQIEQIDEALNQLISGHFVMGEHHCTLTIYGDTVQQVRDYMAKANAALLEVAVLPKPVDLAIEAGYWAQLPANWKWRPRPAPITSLNFLSFSSFHNFMSGKPTGNPWGPAVTILKTISKTPLYFNFHASKLEEDATDKRLLGNTAIIGQSGSGKTVLLGFLLAQAQKFKPTTVVFDKDRGMEIAIRAMGGRYLTFKPGRQSGFNPFQLPPTQDNLTFLKQFVKKLAEASSEITHRDEEEINQAVMSIMSSNINPSLRRLSFLLQFLPNPHLNDYNSHPSVHTRLIKWCEGGDYGWLFDNPTDALDLSTHQIYGFDITEFLDNPETRTPVMMYLLYRTEGMISGQRFMYIFDEFWKPLQDPYFEDLAKNKQKTIRKQNGIFVFATQEPTDALESNIAKTLIQQCATYIFLANPKANYEDYTEGFKLTDAEFELIKGIGEFSRQFLIKQGDQSALAELNLGKFHVTIDGKTVEQNFSDELLVLSGTPDNAELVENIIAEVGDDPALWLPVFLQHIKTNRRTT, MMDSHCRVRAPGAAQPADCPPPTTQHAALAARLGHARLHTLYDQATWSEGPAWWEAQRTLVWSDVVGRRVLGWREDGAVDVLLDATAFTNGNAVDTQQRLVHCEHGRRAITRSEVDGRAHLLVGRFEGKRLNSPNDLIVARDGAIWFTDPPFGLRKPSQGCPGPQELDHHGVYRLPPDGGALQCMVNLDHPNGLAFSPDERVLYVSQTPEGGPGAPEITALDWHDGALHNRRRFAVVPEGLPDGFCVDCQGWLWSSSGAGVCVFDSGGHVLGLVPTPHTASNCTFDLVQRRLFITGGSTLWLLDLQR, MMDSVKNASENISRRLSRTWDHISDGWRELVHHGSDALTHFVHRKGEEDKGQEAAASTPAFPRWSILAGDMEETDREIVVRIEVPGMEKKDFEISIEGKTLSLRGEKRFERDTNDSKYHVMERAYGVFQRTLPLPVEVNEDKAEADYKNGVLTVRLPKLNVEKRRFISIS, MMELIVAQAAASAAELPFLLLQAAAVVGMVSMLMLLQRHIAFDDVRYKIYYGVVFGATGFLLTLLVSEFIQLPSKPYIRSDLLFLAGVVGSWQGGLISLALISAGRFLFGGPALFGAAFLDMSVISAFGIAIYGWMRRRRLTELGMREIAGVFAIRIFAALFAICLTYGLGMVGQDVFLSNVGRRIVGATVGLPMIACLFLLLRSEARAREAVKKREVAARTDSLTGLPNRRALKDHIEMTTRQAPAVPHALLLIEIVNIADVAAYQGDDWADLFWPKLAREICDGENGLLSKFNDPRSFMFGDATLAVVIEGVSLEKSESAGLVLHLHEGLIAFFRSAEAGPVPHLKIGAANLEMVSHQNVASFLRHLSLALRRSENPVQIFPFSFAEKAARDEGVRQMLVRWIKNGKPPIFYQPKFEIHNRRMIGAEALLRAIDTHGQALSPYYVLEIAERHRLLVEFEWSTIEAVVRDLAELPGLDPDFHLAVNISASSFATACFADRVVALLQEMTVPAHRLSIEVTEMSRMPTTDSVQQNFDTLIAAGVRLALDDFGTGYAALTLLARFPFEEVKIDQWMTSRLDQARFRDAVVLAFESAERYGAKLVTEGIETEEQCRILMQMGIRFGQGYLYSPAVPLDRLLPRRAYA, MMENPQQGLEMRSIVVAYYREQAVSTLVKTLIFIVTLLFIGRSFSEEKNYDMQQLSAQQAYENGRLLRAQFKNLAAREYLKYAADLGEPNAAYLYAMEVANYRTTIRTPPESQHYLLLAAQGGSRQAMRVLYQNGEWLRAAERSLWQQTYYDTLIELGSREPSQAAYELALFHQKDNPKLAQHYLTIAVEFEHPAALMLMAQQIEQGEGSYPMPGSRATEARKTYLKAAQTGYIPAIRNYIQLLENKGKYQDAYYWRQQAVQRGDLTSLVAMGGILSGQSEFYRFVEPDLKQAKAYFNRYLEVAGSDRLSHVYQNSQKQLLDISMQLNGHEKEIAEKIELQLENYQPFFNHDAYWDN, MMERFDISAQDLKSFGFTTLFCIVIALATMSIWGGLFGEHLAISFSYGYSAFFSAQWIARRWPELSKRLVNILSLSCAVVLGTSSAYLWLRHYPGFDEFSAYKPIIFLGFIFSAVCFLYFYSHEQKILAQGALEAARRRQSEQEKALLLSQLKQLQSQMEPHFLFNTLANINALIAVEPYKAQLMLEKLTELLRGTMRLRRTNTGDLREEMQLIDAYLGIQKIRLGERLEYTLPELSELGTLGMPPMLIQPLVENAVSHGIEPKAEGGTIRVRIEVADDWFELSVEDNGMGLSDTPKGNGIALQNVRDRLSGLFGHEGLLTVAQNCSGGVTATLRIRLHHLQGLQRSFYDYSQARSPQS, MMFGAIIQQIVLGISLAAPVGPINIEMLKRGIERGFWHAWVVGIGGMTADILFMLLIYFGLSSLFMYTYVQAFMYCTGFFLLFYLGFQSVKQGISQSNMEYKKEEVGGLKQSFMAGFLIAISNPLNLVFWFGIYGSTLSSLLTKVTKQEAFLYSLCIIVGIILWNVNIAFSVHFGRTLLKQKALGYITAGAGIILVGYSIHFAYKALQLFT, MMFHEGTNVAGNAELIPIRLFGTPRCEAVRDAFFPSKGFALTAALILAPNQSLSRQYAASLLWENVEQKRALGNLRQLILRLQKLPSEDDAILLTEGNDLKAGALAQRTDLAIFLAGARAEDPMRRLNALLEFGGDLLEGLEAGQDHLYLWLLSERRRLKDLFFSSYTQLLEELTRFGRASSNDIARLAECACKIEPEREETYRAAMAAYARVGNISACEGMYQLLMEQLRQEDRSPEAETVALKRRIQSLAATIAGPVEPEEGSRRQVLAKPRVAFVRPARVDGQPVPTVIHAFVEDVANSLVRYRTFTVLSPHSTFALAHDRVDDSYAMLRADYRIISTVFDDSRMSVALIEDASGEIVWSLEAVLTERHIHAAFRLLSKQVAAALAREIERLQVEPDRNHSGEAYRQLLEGQQLLRGKCDLPLLRRARSLFRKAVDLDHSLAVARARVAQSLQLEWLMLGGNDPHLLHRAKAEADASVEIDPALGVGHWMCAVVALYQRDFDISAEKFFEAEALAPNSADLLLQHADALAHFGDAEIAWDKFQQAINLNPLAPDIYWWAGASIAFKRQDYGTAVELCGRMENDEPALRVLTASHALHGDLLAARESGSRLQENYPGMTAREISSLSPDRDPIANERFYHALRLAGIK, MMFNYIYTTFLTILYTVVMSLSLSLYLKEREKNYLLVSLYFLLLILNGLIVTMSETFQIFANDYNQQFMVNPIIETIYYLATFGIALKLVTELFEEKITTYQYGIYIVFALWLIVVPFMANSALKVWLYYFPSQLLTVYLGIYLLIHNRKMIPKSSLGKYVKLIGSLAIFFGLAIVVEDTFIIYFRDIYHTNMLKIHNRNVSEDIFHISLCLIAIKYFLTNYQKSNEEVAVIDIRNEKKETNDSVSNFEEDEYYFERFMDKYGITQREGEILELLLQRKHNQEIANQLYLSLGTVKTHTHNIFIKLQVEKRSEVCEVWEAFEKSELTQ, MMGDSVIYYVEQADEPVNRADERARKTFKYFWRELFWERRRIISALDFAMVKVPFFQDGEDGEICEHMWIDDIYFDGLYIYGVLNNEPGELTNVEQGESVCVPVDDISDWMFVCNGIPYGGFTIQAMRGQMTEEERTEHDAAWGIDFGDPGQILLVYEEKEHPENLEEHPMCRNCIDDFRQQLSQNSDYLREQDEDGYTPLHHEAIAGNALMVQAMLEYGANPASTTSEGYTALDFACLTGWQNVADLLEPRH, MMIKIIREMPHGVAALCLIQAFSTFSYAVQYSSLALFITKQLGIANLSANSIVGLFLSFSYIFQLIGGVIGSRFISNRLLFVTTILIQNMGLFFLAQANPSLLNIGLSLFMVGSGLNVTSSNSMLTQCFIPQDDRRESAFFLSYAGMNVGYCIGYIACGFFDYSNQYQYLLYASILTNSIALLIIIKNWAYLGDKNFPLPNLTKRNWYFIKNILAIAFITFLIPFMRVCFEFANFCNGLVIITCLFMFLIIFILGLKQKSSSDRKKMMAYLILAISSVLFWMIYLTGPMGVTLFVKNNVDKHLFSFELATQWIKNINPVVIIFGAPIMSMLINKLKAKGFHVSAPVQFSCSFVFLALSFLCLIFGIICSNSYGYISIYWIIGHHILQGMSELLLGPVGYALIGRIAPPKLQGILMGTWMLVIGVAASFSQYFSNAMVQSESVDPLITNQDFLTAFKQLGLWSLLCAALLYFVSGKLTRIINGTKDNKSVNESKALPMPYSN
